Experimental data: the nanobody polyreactivity screen of Harvey et al. (2022)

Assay: yeast display, Sf9 membrane polyspecificity reagent, FACS + sequencing; frameworks hold sequencing errors
In short: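 Synthetic nanobody libraries on Saccharomyces cerevisiae BJ5465 were galactose-induced for 36–48 hours, stained 1 hour at 4 °C with 10% biotinylated, detergent-solubilized Sf9 membrane reagent and enriched on streptavidin microbeads. FACS then separated cells into low and high (top ~1%) gates by anti-HA (expression) and streptavidin (reagent binding) fluorescence. Genes were colony-PCR amplified, MiSeq 2 × 250 sequenced and CDR-length filtered. A clone's polyreactivity label is that of its gate of origin.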

Row | Sequence | polyreactivity (PSR sort gate)
1 | QVQLVESGGGLVQAGGSLRLICAPSGRIFEGYAMGWYRPATRKERELVAAISRGGGSTYYADSVKGRFTISRDNAKNTVYLQMNSLIPEDTAVYYCAKVPLTYSRSGYEYDYWGQGTQVSVSS | low polyreactivity
2 | QVQLVESGGGLVQAGGSLRLSCAASGSIFVSYAMGWYRQAPGKERELVAVISYSGVSTYYADSVKGRFTISRDNAKNTVYLQMNSLKPEDTAVYYCATRQYGTRHILKYNYWGQGTQVTVSS | low polyreactivity
3 | QVQLVESGGVLVQAGGSLRLSCAASGSILSNYAMGWYRQAPGKERELVASISSTAGSTYYADSVKGRFTISRDNCKNTVYLQMNSLKPEDTAVYYSIKVFGGGTYDFWGQGTQVTVSS | low polyreactivity
4 | QVQLVESAGGLVQAGVSLRISCAASGSTIRHYAMGWYRQAPRKERELVAAISSGARTYYADSEKGRFTISRDNAKNTVYLQMNSLKPEDTAVYYRAARYNGYANPYYYWGQGTQVTVSS | high polyreactivity
5 | QVQLVESGGGLVQAGGSLRLSCAASGSILDSNAMGWYRPAPGKERELVAAITSGGSTYYADSVKGRFTISRDNAKNTVYLQMNSLKPEDTAVYYCAAAYLGYGAVQPSYEGGYWGQGTQVTVSS | low polyreactivity
6 | QVQLVESGGGLVQAGGSLRLSCAASGFIFDQYAMGWYRQAPGKERELVATITSDGDTYYADSVKGRFTISRDNAKNTVYLQMNSLKPDDTAFYYFAVDPGPYTTGYEYWGQGTQLTVSS | low polyreactivity
7 | QVQLVESGGGLVQAGGSLRLSCAASGSIFGSNALGWSRQAPGKERELVAAITWSDGSTYYADSVKGRFTISRDNAKNTVYLQMNSLKPEDTAVYVRATDYGYSWYDYWGQGTQVTVSS | low polyreactivity
8 | QVQLVESGGGLVQAGGSLRLSCAASGFIFRVNALGGSRPAPGKERVLVAARISSSGSTYYADSVKGRFTISRDNAKNTVYLQMNSLKPEDTAVYYCAADPYYLQQFDYWGQGTQVTVSS | low polyreactivity
9 | QVQLVESGGGLVEAGGSLRLSCAASGRTFFSNAMVWYRQAPGKERELVAAINRGGSTYYADSVKGRFTSSRDNAKNTVNLQMNSLKPEDTAVYYCAAGYWSKNSIHYYYWGQGTQVTVSS | high polyreactivity
10 | QVQLVESGGGLVQAGGSLRLSCAASGIIFGHYDMGWYRQAPGKERELVAAITFTGDSTYYADSVKGRFTISRDKAKNTVYLQMTSLKPEDTAVYYCAAETPVPWGSWGYDYWGQGTQVTVSS | low polyreactivity
11 | QVQLVESGGGLVQAGGSLRLTCAASGLIFPRYAMGWYRQAPGKERELVAAISRRGGSTRYADSVKGRFTISRDNAKNTVYLQMNSLKPEDTAVYYCAAPDFPKYYPTAYLQADEYWGQGTQVTVSS | high polyreactivity
12 | QVQLVESGGGLVQAGGSLRLSCAASGRIFGSYTMGWYRQAPGKERELVAAISWSGGNTYYADSVKGRFTISRDNAKNTVYLLMNSQKPEDTAVYYCNALYYRPPKWYGYWGQGTQVTVSS | high polyreactivity
13 | QVQLVESGGGLVQAGGSLRLSCAASGRTFGYNAMGWYRQAPGKERELVAAITSGGGTKYADSVKGRFTISRDNAKNTVYLQMNSLKPEDTAVYYCAATYLYEWSRFVYDGLYYWGQGTQVTVSS | low polyreactivity
14 | QVQLVESGGGLVQAGGSLRLSCAASGFIFDDNTMGWYRQAPGKERELVAAISYSAGSTYYADSVKGRFTISRDNAKNTVYLQMNSLKPEDTAVYYCNKDAASWDYYGGNDYWGQGTQVTVSS | low polyreactivity
15 | QVQHVESGVGLVQAVGSLRLSCAASGLTIDYNAMGWDRQAPVKERELVAAISWSGGSTYYADSLKGRFTISRDNAKNTVYLQMNSLKPEDNAVYYCNALPHIVIGGIICYEYWGQGTQVTVSS | high polyreactivity
16 | QDQLVESGGGLVQAGGSLRLSCDASGSIFKSYAMGWFRQAPGKERELVASITYGGGRTYYADSVKGRFTISRDNAKNTVYLQMNSLKPEDTAVYYCATRLFGRSGMYYLRYDYWGQGTQVTVSS | high polyreactivity
17 | QVQLVESGGRLVQAGGSLRLSCAASGRIFANYAMGWYRQAPGKERELVAAISRSGGSTSYADSVKGRFTISRDNAKNTVYLQMNSLKTEDTAVYYCAATRSRYQPVKYGYWGQGTQVTVTS | high polyreactivity
18 | QVQLVESRWRFVQAGGSLRLSCAASGSIFADYAMGWYRQATGKERELVAAITFSGGSTYYADSVKGRFTISRDNENNTVYLQMNSLKPEDTAVYYCAARWRYRYYSWGQGTQVTVSS | high polyreactivity
19 | QVQLVESGGGLVQAGGSLRLSCAASGFTFRRYAMGWYRQAPGKERELVAAINWNGDSTYYADSVKGRFTISRDNAKNTVYLQMNSVKPEDTAVYYCATSDYYYDYWGQGTQVTVSS | high polyreactivity
20 | QVQLVESGGGLVQAGGSLRLSCAASGRIFDYYAMGWYRQAPGKERELVAVISRGGRTKYADSVKGRFTISRDNAKNTVYLQMNSLKPEDTAVFYCAAYPSYYGDSGLRYDYWGQGTQVTVSS | high polyreactivity
21 | QVQLVESGGGLVQAGGSLRLSCAASGGTFSKYAMGWYRQAPGKEREFVAAITVSGGGTYYADSVKGRFTISRDNAKNPVYLQMNSLKPEDTAVYYCAADLAWTASDYWGHGTQVTVSS | low polyreactivity
22 | QVQLVESGGGLVQAGGSLRLSCAASGGIFQLNAMGWYSQAPGKERELVAAISGSGGSTYYADSVKGRFTISRDNAKNTVYLQMNSLKPEDTAVYYCAVRLTITDYDYWGQGTQVTVSS | low polyreactivity

Row | Sequence | polyreactivity (PSR sort gate)
23 | QVQLVESGGGLVQAGGSLRLSCASSGSIFRYNAMGWYRQAPGKEREFVAAISYSGGRTYYADSLKGRFTISRDNAKNNVYLQMNIQKPEDTAVYYCAARLKRPFSGYDNWGQGTQVSVSS | high polyreactivity
24 | QVQLVESGGGLVQAGGSLRLSCAASGFIIEAYTMGWYRQAPGKERELVAAITWTGGSTYYADSVKGRFTISRDNAKNTVYLQMNSLKPEDTAVYYCNVPYYSFRELSSYYWGQGTQVTVSS | high polyreactivity
25 | QVQLVESGGGLVQAGGSLRLSCAASGIIFHKYAMGWYRQAPGTERELVAAISRSGGRTYYADSVKGRFTISRDNAKNTVYLQMNSLKPEDTAVYYCAARYLKPGGAYDSWGQGTQVTVSS | high polyreactivity
26 | QVQLVESGGGLVQAGGSLPLSCAASGITLYGYAMGWNRQAPGNERELVPAISRSGSSTYYADSVKGRFTISRDNAKNTVYLQMNILKPEDTAVYYCNVYSGRYWESHKFDSWGQGTQVTVSS | high polyreactivity
27 | QVQLVESGGGLVQAGGSLRLSCAASGSIFQWYAMGWYRQAPGKERELVAAITISGTRTYYADSVKGRFTISRDNAKYTVYLQMNSLKPEDTAVYYCAATEGGRFRRIADASMYYWGQGTQVTVSS | high polyreactivity
28 | QVQLQESGGGLVQAGGSLLSCAASGTISYYREMGWYRPAPGKERELVAGIGVGTITYYADSVKGRFTISRDNAKNTVYLQMNSRKPEDTAVYYCAAHIDGNDSHAYWGQGTQVTVSS | low polyreactivity
29 | QVQLVESGGGLVQAGGSLRLICAASGLTFYRYAMGWYRQGPGKERELVAGITRRGGSTYYADSVKGRFTISRDKPKNTVYLPMNSLKPEDTAVYYCNVDGISSSYPEMDYWGQGTQVTVSS | low polyreactivity
30 | QVQLVESGGGLVQAGGSLRLSCAASGYNFENNVMGWYRQAPGKERELVAVISWNGGRTYYADSVKGRFTISRDNAKNTVYLQMNSLKPEDTAVYYCNDQGYFWSESIVYDYWGQGTQVTVSS | low polyreactivity
31 | QVQLVESGGGLVQAGGSLRLSCAASGRTLGANAMGWYRQAPGKERELVAAITDSGGSTYYADSVKGRFTISRDNAKNTVYLQMNSLKPEDTAVYYCAAKQAYSSTYVWPIFDYWGQGTQVTVSS | low polyreactivity
32 | QVKRVESGGGLVQAGGSLRLSCAASGSIVVTNAMGWYRQAPGKERELVAAITSSGSTDYADSVKGRFTISRDNAKNTVSLLMKILKREDTAVYYCNADVATGIFYGYDSWGQGTQVTVSS | low polyreactivity
33 | QVQLVESGGGLVQAGGSLRLSCAASGRTFHPYAMGWYRQAPGKERELVAAITISTNYADSVKGRFTISRDNAKNTVSLQMNSVKPEDTAVYYCNADFVRPSWARGRNNGLYYWGQGTQVTVSS | low polyreactivity
34 | QVQLVESGGGLVHAGGSLLLSCAASRFIFASNAMGWYRKAPAKERELVAAISSSGGRTYYADSVKGRFTISRDNAKNSVYLQMNSLKPEDTAVYYCAADWLVTYDYWGQGTQVTVSS | high polyreactivity
35 | QVQLVESGGGLVQAGGSLRLSCAASGRTFYDNTMGWYRQAPGKERELVAAITRNGGSTYYADSVKGRFTISRDNAKNTVYLQMNSLKPEDTAVYYCAVYVAYLYSYYYWGQGTQVSVSS | low polyreactivity
36 | QVQLVDSGGGLVQAGGSLRLSCAASGITFNLNVMGWYRQAPGKERELVAAISRSGGRTYYADSVKGRFTISRDNAKNTVYLQMNSLKPEDTAVYYCDALSDRSSVPGDYWGQGTQVTVSS | high polyreactivity
37 | QVQLVESGGGLVQAGGSLRLSCAASGSIFNYNTMGWYRQAPGKERELVADISWSGGSTYYADSVKGRFTISRDNAKNTVYLQMNSLKPEDTAVYYCAADFGLFPYVGTGYYFWGQGTQVTVSS | low polyreactivity
38 | QVQLVESGGGLVQAGGSLRLSCAASGLTLAPYAMGWYRQAPGKERELVAAITFSGGSTYYADSVKGRFTISRDNAKNTVYLQMNSLKPEDTAVYYCARDTWAYKNGYPYYSWGQRTQVTVSS | low polyreactivity
39 | QVQLVESGGGLVQAGGSLRLSCAASGSTFLGYDMGWYRQAPGKERELVAAISIGGSTYYADSVKGRFTISRDNAKNTVYLQMNSLKPEDTAVYYCARVTWGHQVIYGLSDYDSWGQGTQVTVSS | low polyreactivity
40 | QVQLVESAGGLVQAGGSLPLSCAASGRTFQTNLMGWYRQAPGKERELVAAITLSGGSTNYADSVKVRFTISRDNAKKTVYLQMNSLKPEDTAVYYCNAERRYRHQLTPHYEYDYWGKGTQVTVSS | low polyreactivity
41 | QVQLEESGGGLVQAGGSLRLSCAASGSTFTLNAMGWYRQAPGKERELVADISWSSGRTYYADSVKGRFTISRDNAKNTVYLQMNSLKPEDTAVYYCATDDFWNVKFYAYYPEFDYWGQGTQVTVSS | low polyreactivity
42 | QVQLVESGGVLVQAGGSLRLICAASGSIFNRYAMGWYRHAPGKDRELVAAISRSGGRTYYADSVKGRFTISRDNAKNTVYLQMNSLKPEDTAVYYCAADKYYRQHEYDYWGQGTQVTVSS | high polyreactivity
43 | QVQLVESCGGLVQAGGSLRLSCAASGSTFVYYAMGWYRQAPGKERELVAAISSGGSTYYADSVKGRFTISRDNAKNTVFLQMNSLKPEDTAVYDCAAKFGWGYTTYYYCGQGTQVTVSS | high polyreactivity
